This series deals with the molecule itself. As to the kind of experiment: SEC; 26/60 Superdex200 High Load gel-filtration column, 20 mM HEPES pH 7.5, 150 mM NaCl, 1 mM DTT.

Consider one protein from paper PMC2675579, “Structure of N-acetylglucosamine-1-phosphate uridyltransferase (GlmU) from Mycobacterium tuberculosis in a cubic space group” (Acta Crystallographica Section F: Structural Biology and …, 2009).

A word on the stoichiometry N: it is the number of molecules, sites or subunits per partner or assembly.

B1: N-acetylglucosamine-1-phosphate uridyltransferase (GlmU) from Mycobacterium tuberculosis (enzyme)
chain: MTFPGDTAVLVLAAGPGTRMRSDTPKVLHTLAGRSMLSHVLHAIAKLAPQRLIVVLGHDHQRIAPLVGELADTLGRTIDVALQDRPLGTGHAVLCGLSALPDDYAGNVVVTSGDTPLLDADTLADLIATHRAVSAAVTVLTTTLDDPFGYGRILRTQDHEVMAIVEQTDATPSQREIREVNAGVYAFDIAALRSALSRLSSNNAQQELYLTDVIAILRSDGQTVHASHVDDSALVAGVNNRVQLAELASELNRRVVAAHQLAGVTVVDPATTWIDVDVTIGRDTVIHPGTQLLGRTQIGGRCVVGPDTTLTDVAVGDGASVVRTHGSSSSIGDGAAVGPFTYLRPGTALGADGKLGAFVEVKNSTIGTGTKVPHLTYVGDADIGEYSNIGASSVFVNYDGTSKRRTTVGSHVRTGSDTMFVAPVTIGDGAYTGAGTVVREDVPPGALAVSAGPQRNIENWVQRKRPGSPAAQASKRASEMACQQPTQPPDADQTP
notes: GlmU, Mycobacterium tuberculosis, gene Rv1018c (glmU); model built for residues 1-472; also called Rv1018c gene product; M. tuberculosis GlmU
Regarding B1, the “stoichiometry N” value turned out to be 3.
